This note sets out measurements from patent publication US20250154264A1 (GENOVAC ANTIBODY DISCOVERY, published 2025).

Experiment [1] concerns the target T1, murine ALK1, N-terminally tagged, on transiently transfected cells (mouse, UniProt Q61288 23-502).
T1 construct: whole, on cells; also called mouse ALK1; murine orthologue; not shown: N-terminal tag used for the expression control
T1 sequence (looked up): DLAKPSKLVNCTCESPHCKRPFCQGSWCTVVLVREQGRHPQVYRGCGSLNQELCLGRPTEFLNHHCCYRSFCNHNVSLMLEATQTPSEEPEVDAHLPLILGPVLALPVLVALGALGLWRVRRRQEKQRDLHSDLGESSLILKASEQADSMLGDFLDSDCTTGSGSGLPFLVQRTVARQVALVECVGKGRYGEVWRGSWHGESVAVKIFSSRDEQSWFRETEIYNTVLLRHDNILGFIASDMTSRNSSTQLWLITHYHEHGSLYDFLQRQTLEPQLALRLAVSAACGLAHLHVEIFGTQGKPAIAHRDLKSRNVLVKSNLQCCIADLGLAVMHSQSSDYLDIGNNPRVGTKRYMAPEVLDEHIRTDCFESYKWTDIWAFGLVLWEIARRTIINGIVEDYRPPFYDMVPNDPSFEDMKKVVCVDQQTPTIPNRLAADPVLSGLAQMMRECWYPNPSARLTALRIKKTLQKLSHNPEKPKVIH
The experiment is described as follows: flow cytometry, hybridoma supernatant on transiently transfected cells, PE goat anti-rat secondary. As for the experimental part:
(§1) Various isolated antibodies were assessed for the ability to bind ALK1 from mouse (murine), human, and cyno monkey. Flow cytometry was used to measure fluorescence intensity produced by fluorescent-labeled secondary antibodies detecting primary anti-ALK1 antibodies that bind to specific cell-associated ALK1 molecules. More precisely hybridoma supernatants containing primary antibodies were tested for binding to transiently transfected cells expressing ALK1 of human, cyno monkey and mouse by flow cytometry. The signals were generated by use of secondary, PE-labelled goat anti-rat antibodies. In addition to testing the supernatants on non-transfected cells, ALK1 of human, cyno monkey and mouse-transfected cells were incubated only with the secondary antibody (without supernatants) as a negative control.

For experiment [2], the target named is T2, human ALK1 (Activin A receptor like type 1), N-terminally tagged, on transiently transfected cells (human, UniProt P37023 22-503).
T2 construct: also called ALK1 of human; ACVRL1; not shown: N-terminal tag used for the expression control
T2 sequence (P37023 22-503): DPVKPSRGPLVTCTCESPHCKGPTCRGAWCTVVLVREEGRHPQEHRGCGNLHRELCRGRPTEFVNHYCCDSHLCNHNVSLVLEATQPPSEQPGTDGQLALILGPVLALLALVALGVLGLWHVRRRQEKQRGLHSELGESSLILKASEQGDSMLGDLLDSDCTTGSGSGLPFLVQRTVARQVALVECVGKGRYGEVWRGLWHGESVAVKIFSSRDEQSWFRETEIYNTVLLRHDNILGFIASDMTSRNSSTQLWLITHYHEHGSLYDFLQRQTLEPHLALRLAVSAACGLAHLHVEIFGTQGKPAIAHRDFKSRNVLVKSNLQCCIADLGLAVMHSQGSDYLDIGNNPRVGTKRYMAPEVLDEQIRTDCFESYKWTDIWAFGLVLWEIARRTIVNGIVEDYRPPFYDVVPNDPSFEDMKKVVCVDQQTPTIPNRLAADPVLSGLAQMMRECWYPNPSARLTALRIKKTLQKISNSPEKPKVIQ
The experiment is described as above. On the procedure:
as §1

The target of experiment [3] is T3, human ALK5 on transiently transfected cells (human, UniProt P36897 34-503).
T3 construct: whole, on cells; also called ALK5 of human
T3 sequence (looked up): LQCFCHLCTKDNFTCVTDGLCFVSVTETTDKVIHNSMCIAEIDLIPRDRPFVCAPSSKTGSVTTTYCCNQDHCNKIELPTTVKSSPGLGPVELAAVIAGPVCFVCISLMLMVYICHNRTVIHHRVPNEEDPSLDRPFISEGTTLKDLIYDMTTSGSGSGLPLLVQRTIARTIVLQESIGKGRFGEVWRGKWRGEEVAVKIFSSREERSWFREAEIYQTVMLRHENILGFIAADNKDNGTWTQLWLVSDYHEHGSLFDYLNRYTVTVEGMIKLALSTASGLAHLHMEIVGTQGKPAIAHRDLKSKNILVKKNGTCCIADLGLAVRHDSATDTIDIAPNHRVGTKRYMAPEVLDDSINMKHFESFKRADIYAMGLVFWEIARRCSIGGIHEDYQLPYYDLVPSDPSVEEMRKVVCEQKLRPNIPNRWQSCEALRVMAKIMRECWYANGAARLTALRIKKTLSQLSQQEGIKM
Put plainly: flow cytometry, hybridoma supernatant on transiently transfected cells (Example 3). As for the experimental part: as §1, with “Flow” for “Various isolated antibodies were assessed for the ability to bind ALK1 from mouse (murine), human, and cyno monkey. Flow”, “cell-associated ALK5” for “cell-associated ALK1”, “expressing ALK5” for “expressing ALK1”, “of human” for “of human, cyno monkey”, “cells, ALK5” for “cells, ALK1”

B1: BVO-A-9F7-A10 (antibody, V domains shown)
VH: QVQLQQWGAGLLKPSETLSLTCAVYGGSFSSSYWNWIRQPPGKGLEWIGEVNHSGSTNYNPSLKSRVTISLDTSKNQFSLKLSSVTAADTAVYYCARSPRSGRIVGAVFDYWGQGTLVTVSS
VL: SYVLTQPPSVSVAPGQTARITCGGNNIGPKSVHWYQQKPGQAPVLVVYDDSDRPSGIPERFSGSNSGNTATLTISRVEAGDEADYYCQVWDSSNDHVVFGGGTKLTVL
notes: Tested as OmniRat hybridoma supernatant and detected with goat anti-rat secondary antibody; also called BVO-A-9E7-A10
In the case of B1, the binding result in experiment [1] is “binds”; in experiment [2], “binds”; in experiment [3], “no binding”.

B2: BVO-B-1H7-E3 (antibody, V domains shown)
VH: QLQLQESGPGLVKPSETLSLTCTVSGGSISSRSYYWGWIRQPPGKGLEWIGNIYYSGSAFYNPSLKSRVTISVDTSKNQFSLKLSSVTAADTAVYYCARWDNWDVGAFDIWGQGTMVTVSS
VL: QSALTQPPSASGSPGQSVTISCTGTSSDVGGYNYVSWYQQHPGKAPKLMIYEVSKRPSGVPDRFSGSKSGNTASLTVSGLQAEDEADYYCTSFAGSNNWVFGGGTKLTVL
notes: Tested as OmniRat hybridoma supernatant and detected with goat anti-rat secondary antibody
Take B2: the binding result is “binds” in experiment [1], “binds” in experiment [2] and “no binding” in experiment [3].
